Assay results published in EP4725956A1, “MODIFIED POLYPEPTIDE AND USE THEREOF IN FIELD OF ANALGESIA” (Nanjing Anji Biotechnology Co., Ltd., priority 2023, dated 2024).
Positions of bridges follow the written chain, without caps; N, C: chain ends. Non-standard residues stand in square brackets, D forms with d. Residues, ends and D or L forms follow the SMILES beside them. No end group written: not given here. Bip = N[C@@H](Cc1ccc(-c2ccccc2)cc1)C(=O)O; Hyp = O=C(O)[C@@H]1C[C@@H](O)CN1; Nle = CCCC[C@H](N)C(=O)O; Orn = NCCC[C@H](N)C(=O)O; Aib = CC(C)(N)C(=O)O

Tests used:
α7 nAChR [1] = target: α7 nAChR (Homo sapiens, UniProt P36544); assay: BLI (biolayer interferometry) affinity of peptides to α7 nAChR; type: binding; set-up: inferred from the 'similar' procedure on NTA sensors; conditions: NTA sensor, α7 nAChR 20 µg/mL, peptide 1.372-1000 nM in PBS
Source text: BLI is a label-free technology that converts optical interference signals occurring on the surface of BLI biosensors into real-time response signals. By monitoring the molecular binding process in real time, the system determines association rate constants (ka or kon), dissociation rate constants (kd or koff), and initial binding rates, and calculates affinity (KD) by fitting analysis. Here are the specific procedures: NTA sensors (Sartorius) were placed in a pre-wetting tray, which was then positioned in a black 96-well plate with 200 µL PBS per well. The NTA sensors were pre-wetted for at least 15 minutes. The target protein α9 nAChR was diluted in PBS to 5 µg/mL, with 200 µL added per well. Test peptides were dissolved in PBS and serially diluted threefold, with concentrations from high to low as 1000 nM, 333.3 nM, 111.1 nM, 37.04 nM, 12.35 nM, 4.115 nM, and 1.372 nM, with an additional well with PBS only as a zeroconcentration control. After equilibrating the instrument baseline, the NTA sensor was used to immobilize the target protein α9 nAChR. Once immobilization was complete, the baseline was re-equilibrated, followed by a 5-minute association and a 5-minute dissociation phase. Affinity measurements of the test peptides were conducted sequentially using the above procedure. The procedure for measuring peptide affinity to α7 nAChR was similar, except that the α7 nAChR concentration was 20 µg/mL. Tables 2 and 3 show the BLI-determined affinities of alanine-scan peptide analogs with target proteins, which identified sites on the parent peptide suitable for modification. Subsequently, single-site non-natural amino acid substituted peptides were evaluated by BLI for target protein affinity. Finally, multi-site combinatorial modified peptides were measured for affinity by BLI, leading to the selection of high-affinity peptides for further screen and drug development potential. Table 2 Test Results for Affinity of Modified Peptides to α9 nAChR

[2] = In vitro plasma stability and predicted half-life (HPLC main peak area, Example 3); type: in vitro ADME; conditions: human plasma (EDTA anticoagulant), 37°C, sampled up to 24 h, predicted half-life calculated with Winolin
Protocol: The modified peptides in this study were designed with non-natural amino acid substitutions at certain non-essential positions to enhance peptide stability and improve druggability. Peptides were dissolved in deionized water to 2 mg/mL, then diluted with acetonitrile to 1 mg/mL and filtered through an organic membrane. 200 µL of the filtrate was transferred to an LC vial as the peptide control. 300 µL of human plasma (comprising EDTA as anticoagulant, Nanjing Senbeijia Biotechnology Co., Ltd., Lot No. SBJ-P-HU011-100 mL) was mixed with 300 µL acetonitrile, centrifuged at 4°C and 12,000 rpm for 5 minutes. The supernatant was filtered through an organic membrane, and 200 µL of the filtrate was transferred to an LC vial as the plasma blank control. For peptide samples, 10 mg of peptide was weighed mixed with 5 mL of human plasma and vortexed thoroughly. 300 µL of peptide-containing plasma was mixed with 300 µL acetonitrile, centrifuged at 4°C and 12,000 rpm for 5 minutes, and the supernatant was filtered through an organic membrane. 200 µL of the filtrate was transferred to an LC vial as the 0 min sample. Peptide-containing plasma was incubated in a 37°C water bath, and samples at other time points were collected using the same procedure as the 0 min sample. For peptides AJ003 and AJ003-1, the sampling time points were 0 min, 5 min, 10 min, 20 min, 30 min, 1 h, 2 h, 4 h, 6 h, 10 h, 12 h, and 24 h. For modified peptides AJ003-34, AJ003-35, AJ003-36, AJ003-37, AJ003-38, AJ003-39, AJ003-40, AJ003-41, and AJ003-42, the time points were 0 min, 10 min, 30 min, 1 h, 4 h, 6 h, 10 h, 12 h, and 24 h. All peptide sample series were analyzed by HPLC, recording the changes in main peak areas over plasma incubation time. Predicted in vitro half-lives were calculated using the pharmacokinetic software Winolin. Due to the presence of tautomers, AJ003 peak areas were difficult to integrate accurately over time. AJ003-1 is an analog of AJ003 in which the threonine at position 5 is substituted with D-threonine; its sequence differs from AJ003 by only one amino acid configuration. […] The in vitro plasma half-lives of modified peptides AJ003-34, AJ003-35, AJ003-36, AJ003-37, AJ003-38, AJ003-39, AJ003-40, AJ003-41, and AJ003-42 were 61.9 h, 45.3 h, 65.3 h, 71.0 h, 26.7 h, 43.0 h, 84.0 h, 30.0 h, and 61.4 h, respectively.

[3] = tested on: rat paclitaxel-induced chronic chemotherapy pain model; assay: Rat paclitaxel chemotherapy pain model, same dose (Example 5); type: in vivo; conditions: 1 mg/kg s.c.
Protocol: Male SPF (Specific Pathogen Free) SD rats weighing 180-200 g (Shanghai Institute of Planned Parenthood Research, Experimental Animal Department) were used. On the day of model induction, rats were weighed, and baseline mechanical pain thresholds were measured. Animals with large differences in body weight or pain threshold were excluded, and the remaining rats were subjected to the experimental protocol. Paclitaxel powder was dissolved in olive oil to 1 mg/mL. Each rat received an intraperitoneal injection of 2 mg/kg per dose. Four injections were administered on days 1, 3, 5, and 7. Rats in the negative control or vehicle control group received injections of the solvent used to dissolve paclitaxel. […] The blank group in Table 4 represents rats without pain modeling, and the model group represents rats with pain modeling but no drug treatment. On days 1, 3, 5, and 12, drugs were administered at fixed times. On days 1, 3, and 5, mechanical pain thresholds of the right hind paw at the corresponding time were measured at 1 h, 2.5 h, 4 h, and 5.5 h after dosing using a blunt probe. On day 12, mechanical pain thresholds were measured at 4 h and 7 h after dosing. […] AJ003-36 and AJ003-40 were thus identified as candidate molecules for further study. Paclitaxel is a widely used small-molecule chemotherapy drug that, while effective against tumors, can induce neuropathic pain in many cancer patients due to neurotoxicity. The chronic chemotherapy pain model induced in male SD rats via multiple low-dose intraperitoneal injections of paclitaxel simulates clinical chemotherapy-induced neuropathic pain. Using this model, the analgesic effects of five modified peptides, the parent peptide AJ003, and the positive control pregabalin were evaluated. […] Table 4 Dosing Scheme for Screening Analgesic Activity of Selected Modified Peptides at the Same Dose in the Paclitaxel Chemotherapy Pain Model

α9 nAChR = target: T1, α9 nAChR (human, UniProt Q9UGM1 23-238); assay: BLI, α9 nAChR captured on NTA sensor, peptide 1.372-1000 nM in solution
T1 construct: also called target protein α9 nAChR; α9 nicotinic acetylcholine receptor
T1 sequence (Q9UGM1 23-238 limits assumed): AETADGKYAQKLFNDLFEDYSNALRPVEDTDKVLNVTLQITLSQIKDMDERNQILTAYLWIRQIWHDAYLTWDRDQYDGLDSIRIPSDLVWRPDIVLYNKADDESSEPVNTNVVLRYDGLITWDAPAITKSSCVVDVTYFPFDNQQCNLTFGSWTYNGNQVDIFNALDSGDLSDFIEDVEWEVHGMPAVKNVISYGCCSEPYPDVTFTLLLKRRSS

α7 nAChR [4] = target: T2, α7 nAChR (human, UniProt P36544 23-233); assay: BLI, α7 nAChR captured on NTA sensor, peptide in solution
T2 construct: also called target protein α7 nAChR; α7 nicotinic acetylcholine receptor
T2 sequence (P36544 23-233 limits assumed): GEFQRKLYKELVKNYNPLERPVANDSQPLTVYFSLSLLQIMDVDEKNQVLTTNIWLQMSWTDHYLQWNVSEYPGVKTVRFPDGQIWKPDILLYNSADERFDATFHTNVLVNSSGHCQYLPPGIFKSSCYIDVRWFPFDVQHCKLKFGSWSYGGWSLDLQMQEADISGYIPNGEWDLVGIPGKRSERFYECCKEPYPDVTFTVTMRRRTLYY

## CCCC[C@H](NC(=O)[C@@H](NC(=O)[C@H]1CSSC[C@H](NC(=O)[C@H](CO)NC(=O)CN)C(=O)N[C@@H](CO)C(=O)N[C@H]([C@H](C)O)C(=O)N2C[C@H](O)C[C@H]2C(=O)N2C[C@H](O)C[C@H]2C(=O)N[C@@H](CO)C(=O)N1)C(C)C)C(=O)N[C@@H](Cc1ccc(-c2ccccc2)cc1)C(=O)N[C@@H](CCCN)C(N)=O [AJ003-34, GSCS-(D-Thr)-Hyp-Hyp-S-(D-Cys)-V-Nle-Bip-Orn-NH2 (3,9 disulfide bond)] (H-GSCS[dT][Hyp][Hyp]S[dC]V[Nle][Bip][Orn]-NH2; disulfide 3-9)
α7 nAChR [1]
  Kd: 360 nM
[2]
  half-life at 2 mg/mL: 61.9 h
[3]
  ranking among the five candidate modified peptides: top three analgesic candidates

## CCCC[C@H](NC(=O)[C@@H](NC(=O)[C@H]1CSSC[C@H](NC(=O)[C@H](CO)NC(=O)CN)C(=O)N[C@@H](CO)C(=O)N[C@H]([C@H](C)O)C(=O)N2C[C@H](O)C[C@H]2C(=O)N2C[C@H](O)C[C@H]2C(=O)NC(C)(C)C(=O)N1)C(C)C)C(=O)N[C@@H](Cc1ccccc1)C(=O)N[C@@H](CCCN)C(N)=O [AJ003-39, GSCS-(D-Thr)-Hyp-Hyp-Aib-(D-Cys)-V-Nle-F-Orn-NH2 (3,9 disulfide bond)] (H-GSCS[dT][Hyp][Hyp][Aib][dC]V[Nle]F[Orn]-NH2; disulfide 3-9)
α7 nAChR [1]
  Kd: 410 nM
[2]
  half-life at 2 mg/mL: 43 h

## CCCC[C@H](NC(=O)[C@@H](NC(=O)[C@H]1CSSC[C@H](NC(=O)[C@H](CO)NC(=O)CN)C(=O)N[C@@H](CO)C(=O)N[C@H]([C@H](C)O)C(=O)N2C[C@H](O)C[C@H]2C(=O)N2C[C@H](O)C[C@H]2C(=O)N[C@@H](C)C(=O)N1)C(C)C)C(=O)N[C@@H](Cc1c[nH]c2ccccc12)C(=O)N[C@@H](CCCN)C(N)=O [AJ003-41, GSCS-(D-Thr)-Hyp-Hyp-A-(D-Cys)-V-Nle-W-Orn-NH2 (3,9 disulfide bond)] (H-GSCS[dT][Hyp][Hyp]A[dC]V[Nle]W[Orn]-NH2; disulfide 3-9)
α7 nAChR [1]
  Kd: 110 nM
[2]
  half-life at 2 mg/mL: 30 h

## CCCC[C@H](NC(=O)[C@@H](NC(=O)[C@H]1CSSC[C@H](NC(=O)[C@H](CO)NC(=O)CN)C(=O)N[C@@H](CO)C(=O)N[C@H]([C@H](C)O)C(=O)N2C[C@H](O)C[C@H]2C(=O)N2C[C@H](O)C[C@H]2C(=O)NC(C)(C)C(=O)N1)C(C)C)C(=O)N[C@@H](Cc1c[nH]c2ccccc12)C(=O)N[C@@H](CCCN)C(N)=O [AJ003-42, GSCS-(D-Thr)-Hyp-Hyp-Aib-(D-Cys)-V-Nle-W-Orn-NH2 (3,9 disulfide bond)] (H-GSCS[dT][Hyp][Hyp][Aib][dC]V[Nle]W[Orn]-NH2; disulfide 3-9)
α7 nAChR [1]
  Kd: 21.2 nM
[2]
  half-life at 2 mg/mL: 61.4 h

B1: AJ003-14 (peptide)
peptide: GSCA[dT]PPS[dC]VLYS
modifications: disulfide 3-9
notes: Printed: GSCA-(D-Thr)-PPS-(D-Cys)-VLYS (3,9 disulfide bond)
α9 nAChR
  Kd: 13900 nM

B2: AJ003-21 (peptide)
peptide: GSCS[dT]PPS[dC]VLAS
modifications: disulfide 3-9
notes: Printed: GSCS-(D-Thr)-PPS-(D-Cys)-VLAS (3,9 disulfide bond)
α9 nAChR
  Kd: 514 nM

B3: AJ003-20 (peptide)
peptide: GSCS[dT]PPS[dC]VAYS
modifications: disulfide 3-9
notes: Printed: GSCS-(D-Thr)-PPS-(D-Cys)-VAYS (3,9 disulfide bond)
α9 nAChR
  Kd: 16.3 nM

B4: AJ003-22 (peptide)
peptide: GSCS[dT]PPS[dC]VLYA
modifications: disulfide 3-9
notes: Printed: GSCS-(D-Thr)-PPS-(D-Cys)-VLYA (3,9 disulfide bond)
α9 nAChR
  Kd: 163 nM

B5: AJ003-26 (peptide)
peptide: GSCS[dT]PPS[dC]GLYS
modifications: disulfide 3-9
notes: Printed: GSCS-(D-Thr)-PPS-(D-Cys)-GLYS (3,9 disulfide bond)
α7 nAChR [4]
  Kd: 6830 nM

B6: AJ003-1 (peptide)
peptide: GSCS[dT]PPS[dC]VLYS
modifications: disulfide 3-9
notes: Printed: GSCS-(D-Thr)-PPS-(D-Cys)-VLYS (3,9 disulfide bond)
α7 nAChR [4]
  Kd: 22 nM
α9 nAChR
  Kd: 86 nM

B7: AJ003-19 (peptide)
peptide: GSCS[dT]PPS[dC]ALYS
modifications: disulfide 3-9
notes: Printed: GSCS-(D-Thr)-PPS-(D-Cys)-ALYS (3,9 disulfide bond)
α9 nAChR
  Kd: 317 nM

B8: AJ003-13 (peptide)
peptide: GACS[dT]PPS[dC]VLYS
modifications: disulfide 3-9
notes: Printed: GACS-(D-Thr)-PPS-(D-Cys)-VLYS (3,9 disulfide bond)
α9 nAChR
  Kd: 6690 nM

B9: AJ003-12 (peptide)
peptide: ASCS[dT]PPS[dC]VLYS
modifications: disulfide 3-9
notes: Printed: ASCS-(D-Thr)-PPS-(D-Cys)-VLYS (3,9 disulfide bond)
α9 nAChR
  Kd: 31600 nM

B10: AJ003-18 (peptide)
peptide: GSCS[dT]PPA[dC]VLYS
modifications: disulfide 3-9
notes: Printed: GSCS-(D-Thr)-PPA-(D-Cys)-VLYS (3,9 disulfide bond)
α9 nAChR
  Kd: 42.6 nM

B11: AJ003-24 (peptide)
peptide: GSCS[dT]PPG[dC]VLYS
modifications: disulfide 3-9
notes: Printed: GSCS-(D-Thr)-PPG-(D-Cys)-VLYS (3,9 disulfide bond)
α7 nAChR [4]
  Kd: 14000 nM

B12: AJ003-30 (peptide)
peptide: GSCS[dT]PPS[dC]VLWS
modifications: disulfide 3-9
notes: Printed: GSCS-(D-Thr)-PPS-(D-Cys)-VLWS (3,9 disulfide bond)
α7 nAChR [4]
  Kd: 27.8 nM

B13: AJ003-27 (peptide)
peptide: GSCS[dT]PPS[dC]VIYS
modifications: disulfide 3-9
notes: Printed: GSCS-(D-Thr)-PPS-(D-Cys)-VIYS (3,9 disulfide bond)
α7 nAChR [4]
  Kd: 323 nM
